Results as given in article PMC8842248.

How the values were obtained:
PDE6D (Homo sapiens) = PDE6D (Homo sapiens) (UniProt O43924); details: cited from earlier work
[1] = molecular target: KRAS WT peptide, …(OMe)-farnesyl; test: ITC; PDE6D (100-300 μM) in the syringe, peptides (10-30 μM) in the cell; 25 °C; 10 mM Tris pH 7.5, 150 mM NaCl, 2 mM DTT, 5% DMSO
[2] = molecular target: HRAS peptide, …(OMe)-farnesyl; test: as above

Sequence of INPP5E (Q9NRR6 1-641): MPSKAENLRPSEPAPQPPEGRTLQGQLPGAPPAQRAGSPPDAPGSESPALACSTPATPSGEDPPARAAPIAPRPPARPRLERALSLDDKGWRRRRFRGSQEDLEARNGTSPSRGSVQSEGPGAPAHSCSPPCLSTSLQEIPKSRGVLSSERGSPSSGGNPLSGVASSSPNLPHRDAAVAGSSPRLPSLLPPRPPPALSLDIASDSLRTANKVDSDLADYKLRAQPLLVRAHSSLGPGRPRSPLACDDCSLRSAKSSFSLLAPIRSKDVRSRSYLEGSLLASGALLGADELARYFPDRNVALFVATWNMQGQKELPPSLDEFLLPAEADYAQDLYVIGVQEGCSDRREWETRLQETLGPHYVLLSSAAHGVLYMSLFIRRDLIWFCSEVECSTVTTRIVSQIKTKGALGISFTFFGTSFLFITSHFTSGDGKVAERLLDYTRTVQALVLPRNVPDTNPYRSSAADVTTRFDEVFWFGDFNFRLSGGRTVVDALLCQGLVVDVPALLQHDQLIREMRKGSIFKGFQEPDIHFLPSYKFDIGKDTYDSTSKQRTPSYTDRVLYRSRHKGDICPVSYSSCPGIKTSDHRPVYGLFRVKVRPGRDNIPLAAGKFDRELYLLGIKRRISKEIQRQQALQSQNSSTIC

Substance	Kd (PDE6D (Homo sapiens))	Kd [1]	Kd [2]
INPP5E (from UniProt Q9NRR6)	10 nM		
PDE6D (phosphodiesterase 6 delta), wild type, polyhistidine tag removed (from UniProt O43924 1-150) (natural protein)		1300 nM	2700 nM
